Experiment: yeast display, Sf9 membrane polyspecificity reagent, FACS + sequencing; frameworks hold sequencing errors
How it was run: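 Nanobodies came from a synthetic yeast display library in Saccharomyces cerevisiae BJ5465, induced with galactose for 36–48 hours and stained for 1 hour at 4 °C with 10% biotinylated, detergent-solubilized Sf9 membrane reagent. Cells were enriched on streptavidin microbeads and then FACS-sorted, with low and high (top ~1%) gates set on anti-HA fluorescence for expression and streptavidin fluorescence for reagent binding. Each polyreactivity label reflects the gate a clone came from. Genes were amplified by colony PCR, sequenced by MiSeq 2 × 250 and filtered by CDR length.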

| Sequence | polyreactivity (PSR sort gate) |
| --- | --- |
| QVQLVESGGGLVQAGGSLRLSCAASGSTFGDNAMGWYRQAPGKERELVAAITSVGTTYYADSVKGRFTISRDNAKNTVYLQMNSLKPEDTAVYYCNAEYVWDDYFEFDYWGQGTQVTVSS | low polyreactivity |
| QVQLVESGGGLVQAGGSLRLSCAASGSTFGDYAMGWYRQAPGKERELVAAISVRGGSTYYADSVKGRFTISRDYAQNTVYLQMNSLKPEDTAVYYCNKDLYRYPGYDSWGQGTQVTVSS | high polyreactivity |
| QVQLVESGGGLVQAGGSLRLSCAASGSTFGENAMGWYRQAPGKERELVAAISSGGSTNYADSVNGRFTISRDNAQNTVYLQMNSLQPEDTAVYYCNRYPVRDTGGYWGQGTQVTVSS | low polyreactivity |
| QVQLVESGGGLVQAGGSLRLSCAASGSTFGFNGMGWYRQAPGKERELVAAIRSSGGSTYYADSVKGRFTISRDNAKNTVYLQMNSLKPEDTAVYYCAADYYTYGFANWYLWYDYWGQGTQVTVSS | high polyreactivity |
| QVQLVESGGGLVQAGGSLRLSCAASGSTFGFYAMGWYRQAPGKERELVAAIDSGGSTYYADSVKGRFTISRDNAKNTVYLQMNSLKPEDTAVYYCAVRHRYTRAYWGRDYWGQGTQVTVSS | low polyreactivity |
| QVQLVESGGGLVQAGGSLRLSCAASGSTFGFYAMGWYRQAPGKERELVAAISSSGSTYYADSVKGRFTISRDNAKNTVYLQMISLKPEDTAVYYCAAQPGYYDYDYWGQGTQVTVSS | low polyreactivity |
| QVQLVESGGGLVQAGGSLRLSCAASGSTFGGNAKGWYRQAPGKERELGAAISSSGGSTYYADSVKGRFTLSRDNAKNTVYLQMNSLKPEDTAVYYCAALYHWTYDYWGQGTQVTVSS | low polyreactivity |
| QVQLVESGGGLVQAGGSLRLSCAASGSTFGGNAMGWYRPAPGKERELVAGITSSGTSTYYADSVKGRFTISRDNAKNTVYLQMNSLKPEDTAVYYCATDEADESYGFELFDYWGQGTQVTVSS | low polyreactivity |
| QVQLVESGGGLVQAGGSLRLSCAASGSTFGGNAMGWYRQAPGKERELVAAITVGGDSPYYADSVKGRYTISRDNAKNTVYLQMNSLKPEDTADYYCAARHYWWYDYWGQGTQVTVSS | low polyreactivity |
| QVQLVESGGGLVQAGGSLRLSCAASGSTFGGNAMGWYRQAPGKERELVAVISKRGGSTYYADSVKGRFTISRDNAKNTVYLQMNSLKAEDTAVYYCAATYSRYWSPTYDYWGEGTQVTVSS | high polyreactivity |
| QVQLVESGGGLVQAGGSLRLSCAASGSTFGGYAMGWYRPAPGKERELVAAINRSGARTYYADSVKGRFTISRDNAKNTVYLQMNSLKPEDTAVYYCNKAQGSHGAYDYWGQGTQVTVSS | high polyreactivity |
| QVQLVESGGGLVQAGGSLRLSCAASGSTFGGYAMGWYRQAPGKERELVAAISSGGSTYYADSVKGRFTISRDNAKNTVYLQMNSLKPEDTAVYYCAADTYAHWGYYGSYYRDDYWGQGTQVTVSS | low polyreactivity |
| QVQLVESGGGLVQAGGSLRLSCAASGSTFGGYAMGWYRQAPGKERELVATITGGGSTNYADSVKGRFTISRDNAKNTVYLQMNSLKPEDTAVYYCAATEKYQYKVYYDPVGAYDYWGQGTQVTVST | low polyreactivity |
| QVQLVESGGGLVQAGGSLRLSCAASGSTFGHNAMGWYRQAPGKERELVAAIDSGDGTTYADSVKGRFTISRDNAKNTVYLQMNSLKPEDTAVYYCAATTDRAEDDDNIGGYWGQGTQVTVSS | low polyreactivity |
| QVQLVESGGGLVQAGGSLRLSCAASGSTFGIYAMGWYRQAPGKERELVATISWGGGDTYYADSVKGRFTISRDNAKNTVYLQMNSLKPEDTAVYYCAADLWYGKTSGSTTPDPYDYWGQGTQVTVSS | low polyreactivity |
| QVQLVESGGGLVQAGGSLRLSCAASGSTFGIYARGWYIQAPGKEWDLVAAITWIGSDTYYADSVKGRFTISRDNAKNTVYLQMISLKPEDTAVYYCNAVKLLGTRGYGYWGQGTQVTVSS | high polyreactivity |
| QVQLVESGGGLVQAGGSLRLSCAASGSTFGKNAMGWYRQAPGKERELVAAISRSGGRTYYADSVKGRFTISRDNAKNTVYLQMNSLKPEDPAVYYCAREWYTAGSGDYWGQGTQVTVSS | low polyreactivity |

— the nanobody polyreactivity screen of Harvey et al. (2022)
